Experimental findings from PMC11032447 are described below.

The chains are these.
B1: mouse secretagogin [mouse] / helix-b of the Habc domain of mouse syntaxin-4 [mouse] (parent)
chain 1: MDNARRKTPARLDAACFWQIWQRFDKEEKGYIRETELDAFFDHLLAKSGTEDTLMEENVQKVKEQLMTSHNVSKEGRILMKELASMFLSEDENFLLFFRLETPLDNSVEFMQIWRKYDADSSGFISAAELCNFLRDLFLHHKKNISEAELEEYTSTMMKIFDKNKDGRLDLNDLARILALQENFLLQFKMDASSTEERKRDFEKIFAHYDVSKTGALEGPEVDGFVKDMMELVQPSISGVDLDKFREILLRHCDVNKDGKIQKSELALCLGLKINP
chain 2: TPLPEESMKQGLQNLREEIKQLGREVRAQLKAIEPQKE

In the assay the parent is B1. Nature of the assay: ITC. Also noted: reference not given here. Conditions: with helix-b of the Habc domain of mouse syntaxin-4 [mouse].
Take chain 1 V233A: the ratio to parent came to 0.31. For chain 1 L270A, the ratio to parent was found to be 39.8. For the variant chain 1 R198A, the ratio to parent was determined as 1.99. In the case of chain 1 M229E, the ratio to parent amounted to 12.8. With chain 1 M229A, the ratio to parent was found to be 3.98.
